This is an account of results in patent US20180125934A1 (Stanford University, published 2018).

First the molecules themselves.
B1: PD-1 variant polypeptide, clone S5.1 (receptor)
chain: NPPTFSPALLVVTEGDNATFTCSFSNTSESFVLNWYRMSPSNQTDKLAAFPEDRGQLGQDSRFRVTQLPNGRDFHMSVVRARRSDSGTYLCSAIVLAPKIQIKESLRVELRVTERRAE
B2: PD-1 variant polypeptide, clone S6.12.6 (receptor, not shown: large carriers)
chain: B1 chain with M38I, V95L, K99R, K103R, R107G, R115K
B3: PD-1 variant polypeptide, clone S6.12.9 (receptor)
chain: B1 chain with K99R
B4: PD-1 variant polypeptide, clone S6.8.3 (receptor)
chain: B1 chain with D60A, V95L, K99R, K103R
B5: PD-1 variant polypeptide, clone S5.7 (receptor)
chain: B1 chain with V95L
B6: PD-1 variant polypeptide, clone S5.1i (receptor)
chain: B1 chain with G55S, L57P, H75R, V95S, I100V, V108A
B7: PD-1 variant polypeptide, clone S5.1e (receptor)
chain: B1 chain with G55S, L57P, S92G, V95S, I100V, V108A, T113I
B8: PD-1 variant polypeptide, clone S5.1n (receptor)
chain: B1 chain with G55S, L57P, R83G, S84D, S92G, V95S, I100V
B9: PD-1 variant polypeptide, clone S5.1f (receptor)
chain: B1 chain with M38V, G55S, Q56R, L57P, Q67R, R80G, S92G, V95S, I100V, V108A
B10: PD-1 variant polypeptide, clone S5.2q (receptor)
chain: B1 chain with N1S, F5L, A18V, L57P, Q59R, S84N, S92G, V95S, I100V, V108A
B11: PD-1 variant polypeptide, clones S5.1j, S5.1o (receptor)
chain: B1 chain with G55S, L57P, S84N, S92G, V95S, I100V
B12: PD-1 variant polypeptide, clone S5.2s (receptor)
chain: B1 chain with N42S, G55S, L57P, S92G, A93V, V95S, I100V, V108A, T113I
B13: PD-1 variant polypeptide, clone S5.1c (receptor)
chain: B1 chain with L57P, T66I, S84N, S92G, V95S, I100V, V108A
B14: PD-1 variant polypeptide, clone S5.2i (receptor)
chain: B1 chain with T13A, G55S, L57P, S61R, N70S, S84N, S92G, V95F, K99R, V108A
B15: PD-1 variant polypeptide, clone S5.1q (receptor)
chain: B1 chain with G55S, S84N, S92G, V95S, I100V, K103R
B16: PD-1 variant polypeptide, clone S5.1p (receptor)
chain: DPPTFSPALLVVTEGDNATFTCSFSNTSESFVLNWYRMSPSNQTDKLAAFPEDRSQPGQDSRFRVTQLPNGRDFHMSVVRARRNDSGTYLCGAILLAPRIQIRESLGAELRVTEKGAE
B17: PD-1 variant polypeptide, clone S5.1k (receptor)
chain: B16 chain with N84D, L95S, R99K, R103K, G107R, K115R, G116R
B18: PD-1 variant polypeptide, clone S5.2d (receptor)
chain: B16 chain with D1N, N42D, Q56R, R80G, L95S, R99K, I100V, G107R, K115R, G116R
B19: PD-1 variant polypeptide, clone S5.1g (receptor)
chain: B1 chain with T27A, N42D, S84N, S92G, V95S, V108A
B20: PD-1 variant polypeptide, clone S5.4 (receptor)
chain: B16 chain with D1N, S55G, Q59R, H75R, N84S, G92S, R99K, R103K

Where a chain is given by its changes, count along the chain named.

For one assay, the target named is T1, human PD-L1-Fc chimeric protein (human, UniProt Q9NZQ7 19-238).
T1 construct: extracellular domain; Recombinant protein; also called soluble PD-L1-Fc; not shown: Fc region of human IgG1, fused at the C-terminus
T1 sequence (Q9NZQ7 19-238, change not shown): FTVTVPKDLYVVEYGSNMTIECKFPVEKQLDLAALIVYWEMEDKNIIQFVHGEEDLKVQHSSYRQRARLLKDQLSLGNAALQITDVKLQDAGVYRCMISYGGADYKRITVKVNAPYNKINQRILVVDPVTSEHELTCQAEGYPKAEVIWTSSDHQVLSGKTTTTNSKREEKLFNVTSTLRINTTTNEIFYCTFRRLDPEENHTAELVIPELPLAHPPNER
Nature of the assay: flow cytometry of yeast-displayed clone with soluble PD-L1-Fc (S5.1 tested at 0.5 nM only, see paragraph 221). The protocol: (§1) Binding was allowed to proceed for 3 hours at room temperature at which time yeast were pelleted, washed twice to remove unbound PD-L1-Fc, and stained with a fluorescently labeled secondary antibody to detect the Fc of bound PD-L1. Secondary labeling was performed for 30 minutes on ice, after which yeast were pelleted and washed as described. Yeast samples were then analyzed on a flow cytometer to quantify PD-L1-Fc binding.
(§2) FIG. 4 provides a graph of the FACS data.
(In general: Flow cytometry measures light scatter and fluorescence of single cells or particles in a stream.)
Consider B1, for which the binding result was “binds”.

The target in a further assay is T1, human PD-L1-Fc chimeric protein. Put plainly: flow cytometry of yeast-displayed clone, FIG. 2 (0.5 nM PD-L1-Fc) and FIG. 3 (5 nM, also bound strongly). The protocol:
as §1, §2
Take B2: the binding result is listed as “binds”.
For B3, the binding result was “binds”.
Still for that read-out and setting: the entry for B4 is “binds”; for B5 it is “binds”.

The target is the same in a further assay. Put plainly: yeast display, clone sequenced from the pool after five FACS sorts on PD-L1-Fc; measured as a pool, not singly. The protocol:
In these sorts, yeast were incubated at room temperature in phosphate-buffered saline with 1 mg/ml BSA (PBSA) and with the following nominal concentrations of PD-L1-Fc: for sort 1, 250 nM; sort 2, 20 nM; sort 3, 1 nM; sort 4, 0.1 nM; sort 5, 0.1 nM. PD-L1 Fc refers to a human PD-L1-Fc chimeric protein. This recombinant protein contains the extracellular domain of human PD-L1 fused to the Fc region of human IgG1 at the C-terminus. After incubation with PD-L1-Fc, yeast were pelleted, washed, and resuspended in PBSA with chicken anti-cMYC for 1 hour at 4° C. After primary antibody incubation, yeast were once again washed and secondary labeling was performed on ice for 30 minutes using PBSA with goat anti-chicken Alexa Fluor 555 and goat anti-human IgG Alexa Fluor 488. Each sort was conducted such that the 1-3% of clones with the highest PD-L1 binding/cMyc expression ration were selected, thereby enriching the library for clones with the highest affinity. In the first round, 1×10⁸ cells were screened, and in subsequent rounds a minimum of ten-fold the number of clones collected in the prior sort round were screened to ensure adequate sampling of diversity.
Samples were analyzed using a FACScalibur flow cytometer and data was analyzed using FlowJo software.
For the molecule B6, the binding result is on record as “binds”.
The same measure, in the same setting: then B7, with “binds”.
On the same count and under the same terms, the entry for B8 is “binds”.
Same read-out and setting: the entry for B9 is “binds”; for B10 it is “binds”.
Turning to B11, the binding result is “binds”.
Same read-out and setting: the entry for B12 is “binds”; for B13 it is “binds”.
The same measure, in the same setting: the entry for B14 is “binds”; for B15 it is “binds”; for B16 it is “binds”.
Same read-out and setting: then B17, with “binds”; and B18, with “binds”.
Turning to B19, the binding result was “binds”.

The target is the same in the next assay. Nature of the assay: flow cytometry of yeast-displayed clone with soluble PD-L1-Fc at 5 nM or 0.5 nM. On the procedure:
as §1, §2
For B20, the binding result is “binds”.
